Test results from patent CN114031685A (INST MILITARY MEDICINE ACADEMY MILITARY SCIENCES PLA, dated 2022).

Experiments:
SARS-CoV-2 NTD蛋白 = molecular target: T1, SARS-CoV-2 NTD蛋白 (SARS-CoV-2, UniProt P0DTC2 14-303); assay: ELISA, antigen coated at 2 μg/mL
T1 construct: domain: NTD

SARS-CoV-2 WT S2蛋白 = molecular target: T2, SARS-CoV-2 WT S2蛋白 (SARS-CoV-2, UniProt P0DTC2 686-1213); assay: ELISA, antigen coated at 2 μg/mL
T2 construct: domain: S2

[1] = molecular target: 新冠病毒野生型 S蛋白 (on pseudovirus / live virus) (SARS-CoV-2, UniProt P0DTC2 14-1273); assay: cell-based or functional assay

B1: 抗SARS-CoV-2全人源单克隆抗体ZW2G10 (antibody, V domains shown)
VH: EVQLVESGGGLVQPGRSLRLSCAASGFTFDDYAMHWVRQAPGKGLEWVSGITWNSGTIGYADSVKGRFIISRDNAKNSLHLQMNSLRVEDTALYYCAKDNSDYSGYYWELENYGMDVWGQGTTVTVSS
VL: QSVLTQPPSVSGAPGQRVTISCTGSSSNIGAGYDVHWYQQLPGTAPKLLIYDNNNRPSGVPDRFSGSKSGTSASLAITGLQAEDEADYYCQSFDSSLSGVVFGGGTRLTVLR
notes: also called 单抗ZW2G10
B1 was tested, and the binding result (SARS-CoV-2 NTD蛋白) was “no binding”, the binding result (SARS-CoV-2 WT S2蛋白) was “no binding” and the “假病毒中和 EC50” value [1] was 0.0142 µg/mL. The “真病毒中和 EC50 (Vero E6)” value [1] was 1.08 µg/mL.
